Results on four molecules are retold here after article PMC10470207, “Activation of human RNA lariat debranching enzyme Dbr1 by binding protein TTDN1 occurs though an intrinsically disordered C-terminal domain” (The Journal of Biological Chemistry, 2023).

Data set [1] addresses T1, human RNA lariat debranching enzyme Dbr1, full-length (1-544) (human, UniProt Q9UK59 1-544).
T1 sequence (looked up): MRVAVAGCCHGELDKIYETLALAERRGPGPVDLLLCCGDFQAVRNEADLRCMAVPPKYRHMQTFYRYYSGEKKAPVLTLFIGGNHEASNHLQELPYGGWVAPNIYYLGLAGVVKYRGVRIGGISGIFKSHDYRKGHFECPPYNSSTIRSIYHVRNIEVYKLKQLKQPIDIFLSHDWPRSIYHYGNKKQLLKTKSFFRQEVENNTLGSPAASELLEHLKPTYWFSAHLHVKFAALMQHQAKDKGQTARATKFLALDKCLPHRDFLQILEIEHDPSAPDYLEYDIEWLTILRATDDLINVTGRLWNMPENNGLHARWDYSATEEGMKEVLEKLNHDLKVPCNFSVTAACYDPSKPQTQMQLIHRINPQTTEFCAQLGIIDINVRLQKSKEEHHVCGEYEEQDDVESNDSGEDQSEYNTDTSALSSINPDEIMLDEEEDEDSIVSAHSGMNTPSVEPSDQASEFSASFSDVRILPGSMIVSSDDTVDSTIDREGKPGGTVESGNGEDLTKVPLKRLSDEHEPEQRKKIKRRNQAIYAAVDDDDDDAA
In words: cell-based or functional assay.

Data set [2] concerns the target T1, human RNA lariat debranching enzyme …. In words: fluorescence polarisation; fluorescein-labeled TTDN1 fixed at 2.5 nM; unlabeled Dbr1 titrated (3-fold dilution from 2.8 uM to 1 nM) or Drn1 at 225 nM; SEC buffer; black 96-well half-area plates. The note with it: both partners purified. (In fluorescence polarisation assays a small probe gives low polarisation when free and higher when bound to something large.)

Data set [3] concerns the molecule itself. In words: AUC; proteins diluted to 0.9 A280 in Q-A buffer (20 mM Tris pH 8, 50 mM NaCl, 1 mM TCEP); 40,000 RPM; analysed with Ultrascan.
The target of data set [4] is T1, human RNA lariat debranching enzyme …. In words: SEC; Superdex 200-Increase 10/300 in SEC buffer (50 mM Tris pH 8, 100 mM NaCl, 1 mM TCEP); about 100 ug Dbr1 injected, Drn1 added at an equimolar ratio; peak fraction on a Coomassie-stained denaturing gel. The note with it: both partners purified.

B1: trichothiodystrophy nonphotosensitive 1 (TTDN1), fluorescein-labeled (natural protein, UniProt Q8TAP9 1-179, looked up)
chain: MQRQNFRPPTPPYPGPGGGGWGSGSSFRGTPGGGGPRPPSPRDGYGSPHHTPPYGPRSRPYGSSHSPRHGGSFPGGRFGSPSPGGYPGSYSRSPAGSQQQFGYSPGQQQTHPQGSPRTSTPFGSGRVREKRMSNELENYFKPSMLEDPWAGLEPVSVVDISQQYSNTQTFTGKKGRYFC
modifications: 5-iodoacetamido-fluorescein label on the cysteine residue at the C terminus
notes: trichothiodystrophy nonphotosensitive 1 (TTDN1); codon-optimized expression plasmid ordered from GenScript; The debranching (functional) assays used unlabeled, GuHCl-solubilized TTDN1 of the same construct; also called labeled TTDN1
A word on the Kd: it is the free concentration of one partner at which half of the binding sites on the other are occupied at equilibrium, for simple one-to-one binding. Regarding B1, the “catalytic efficiency of Dbr1 debranching of a fluorescent branched RNA substrate, TTDN1:Dbr1 mixture at 10:1 molar ratio (unlabeled, GuHCl-solubilized TTDN1), relative to Dbr1 alone” value in data set [1] came out at 19 fold. This molecule registered a Kd in data set [2] of approximately 3 nM.

B2: human Dbr1 truncated after residue 502 (Dbr1-502) (domain or fragment, UniProt Q9UK59 1-502, looked up)
chain: MRVAVAGCCHGELDKIYETLALAERRGPGPVDLLLCCGDFQAVRNEADLRCMAVPPKYRHMQTFYRYYSGEKKAPVLTLFIGGNHEASNHLQELPYGGWVAPNIYYLGLAGVVKYRGVRIGGISGIFKSHDYRKGHFECPPYNSSTIRSIYHVRNIEVYKLKQLKQPIDIFLSHDWPRSIYHYGNKKQLLKTKSFFRQEVENNTLGSPAASELLEHLKPTYWFSAHLHVKFAALMQHQAKDKGQTARATKFLALDKCLPHRDFLQILEIEHDPSAPDYLEYDIEWLTILRATDDLINVTGRLWNMPENNGLHARWDYSATEEGMKEVLEKLNHDLKVPCNFSVTAACYDPSKPQTQMQLIHRINPQTTEFCAQLGIIDINVRLQKSKEEHHVCGEYEEQDDVESNDSGEDQSEYNTDTSALSSINPDEIMLDEEEDEDSIVSAHSGMNTPSVEPSDQASEFSASFSDVRILPGSMIVSSDDTVDSTIDREGKPGGTVESGNG
notes: source: E. coli, purified
Take B2: the binding result in data set [3] was “binds”.

B3: Drn1 (human Drn1 homolog, Cwf19-L1) (natural protein, UniProt Q69YN2 1-538, looked up)
chain: MAQKPLRLLACGDVEGKFDILFNRVQAIQKKSGNFDLLLCVGNFFGSTQDAEWEEYKTGIKKAPIQTYVLGANNQETVKYFQDADGCELAENITYLGRKGIFTGSSGLQIVYLSGTESLNEPVPGYSFSPKDVSSLRMMLCTTSQFKGVDILLTSPWPKCVGNFGNSSGEVDTKKCGSALVSSLATGLKPRYHFAALEKTYYERLPYRNHIILQENAQHATRFIALANVGNPEKKKYLYAFSIVPMKLMDAAELVKQPPDVTENPYRKSGQEASIGKQILAPVEESACQFFFDLNEKQGRKRSSTGRDSKSSPHPKQPRKPPQPPGPCWFCLASPEVEKHLVVNIGTHCYLALAKGGLSDDHVLILPIGHYQSVVELSAEVVEEVEKYKATLRRFFKSRGKWCVVFERNYKSHHLQLQVIPVPISCSTTDDIKDAFITQAQEQQIELLEIPEHSDIKQIAQPGAAYFYVELDTGEKLFHRIKKNFPLQFGREVLASEAILNVPDKSDWRQCQISKEDEETLARRFRKDFEPYDFTLDD
notes: human Drn1 homolog (Cwf19-L1); cDNA purchased from Genecopoeia, subcloned into a modified pET vector; source: E. coli BL21, purified (Ni column, Superdex-200)
As usually defined, the stoichiometry N is the number of molecules, sites or subunits per partner or assembly. On to B3, for which the “stoichiometry N” value in data set [4] is 1.

B4: human Dbr1 truncated after residue 399 (Dbr1-399) (domain or fragment, UniProt Q9UK59 1-399, looked up)
chain: MRVAVAGCCHGELDKIYETLALAERRGPGPVDLLLCCGDFQAVRNEADLRCMAVPPKYRHMQTFYRYYSGEKKAPVLTLFIGGNHEASNHLQELPYGGWVAPNIYYLGLAGVVKYRGVRIGGISGIFKSHDYRKGHFECPPYNSSTIRSIYHVRNIEVYKLKQLKQPIDIFLSHDWPRSIYHYGNKKQLLKTKSFFRQEVENNTLGSPAASELLEHLKPTYWFSAHLHVKFAALMQHQAKDKGQTARATKFLALDKCLPHRDFLQILEIEHDPSAPDYLEYDIEWLTILRATDDLINVTGRLWNMPENNGLHARWDYSATEEGMKEVLEKLNHDLKVPCNFSVTAACYDPSKPQTQMQLIHRINPQTTEFCAQLGIIDINVRLQKSKEEHHVCGEYEEQ
notes: source: E. coli, purified
In the case of B4, the binding result in data set [3] is on record as “binds”.
